This is an account of results in patent publication US20080274096A1, “Fusion Proteins Having a Modulated Half-Life in Plasma” (ASTRAZENECA AB, priority 2005, published 2008).

The test system of series [1] is fluorogenic peptide substrate V-Mca-Arg-Pro-Gly-Phe-Ser-Ala-Phe-Lys(Dnp)-OH. Briefly: Neprilysin enzyme activity FRET assay. Conditions: purification with addition of 200 μM ZnCl2 versus without. It is filed as biochemical. The protocol: Neprilysin is affinity purified directly from the culture supernatants. Soluble Neprilysin is purified using biotinylated anti-neprilysin antibody (R&D Systems) bound to […] sepharose (GE Healthcare). 14 μg biotinylated anti-neprilysin antibody (R&D systems) was added to 140 μl streptavidin sepharose slurry (GE Healthcare) and incubated during gentle mixing for 2 hours, in room temperature. The sepharose was washed twice and resuspended in 140 μl PBS. The sepharose slurry with bound anti-neprilysin antibody, was added to 10 ml culture supernatant and the sample was incubated for 5 hours at 4° C. After incubation, the sepharose was washed once with PBS and resuspended in 1200 μl 50 mM Tris-HCl, pH 7.5, 150 mM NaCl. […] The sepharose was pelleted and the concentration of purified protein in the supernatant was measured by absorbance at 280 nm. […] The Neprilysin enzymatic activity is determined in a fluorescence resonance energy transfer (FRET) assay. […] Following addition of all components to wells, plate was immediately placed into a fluorescent plate reader (Ascent) and signal was recorded for every minute for 20 minutes at the excitation 340 nm and emission 405 nm. The activity of enzyme was evaluated by calculating the velocity of reaction-Slope coefficient=Σ ΔRFU/Δt. […]

For the next series, the system named is Ab1-42. Particulars: purified Neprilysin; Howell et al., 1995; cited from earlier work.
Series [2] has as its system amyloid β peptide1-42 (Aβ42). Put plainly: Degradation of Aβ1-42 in guinea pig plasma by neprilysin. It is filed as biochemical. Conditions: 5 μg/ml neprilysin, 0-360 minutes at 37° C. The protocol:
(§1) Degradation of amyloid β peptide1-40 (Aβ40) and amyloid β peptide1-42 (Aβ42) by neprilysin was investigated using heparinized plasma from male Dunkin Hartley guinea pigs, weighing 250-300 g (HBLidköping ka). Blood was withdrawn from anaesthetized guinea pigs by heart puncture. The blood were collected into prechilled heparin-plasma tubes and centrifuged for 10 min at 4° C. at 3000×g within 20 minutes of sampling. Plasma samples were transferred to pre-chilled polypropylene tubes and immediately frozen on dry ice and stored at −70° C. prior to use. The experiments were performed on a pool of plasma from 5-6 guinea pigs. […] A final concentration of 4.7 mM EDTA was added into the tubes before the amount of Aβ1-40 or Aβ1-42 was analyzed by using commercial ELISA kits obtained from Biosource (Aβ1-40) or Innogenetics (Aβ1-42).

Another series has as its system amyloid β peptide. Briefly: Two-compartment membrane experiment, degradation of amyloid β peptide. It is filed as biochemical. Particulars: degradation in one compartment connected through a membrane. The protocol:
An experiment is performed to investigate the possibility to remove amyloid β peptide from one compartment by degradation in another compartment connected through a membrane. A similar experiment was conducted using an antibody as an amyloid β peptide agent. The experiment is described by DeMattos et al., (PNAS, 2001). By degrading the amyloid β peptide with neprilysin and/or NEP-Fc in one compartment the concentration of amyloid β peptide in the other compartment is decreased. Importantly, neprilysin or NEP-Fc cannot cross the membrane due to its high molecular weight (161.000 Da and 211.000 Da, respectively).

The next series has as its system amyloid β1-40 peptide. Put plainly: Degradation of amyloid β1-40 peptide by soluble Neprilysin in a buffer system. Particulars: Neprilysin 1.8 μg/ml; Amyloid β1-40 peptide (1 nM); 3 hours incubation at 37° C. It is filed as biochemical. The protocol:
Following incubation, 50 μl of antibodies solution containing anti-Aβ40 (final concentration 0.125 μg/ml; Biosource) and Biotinylated 6E10 (final concentration 0.125 μg/ml; Signet) antibodies was added to each well. Plate was incubated at RT for 3 h. Following incubation, 50 μl of detection mixture of Dynabeads M280 (Dynal Biotech ASA) and secondary antibody Ru-GαR (final concentration 0.132 μg/ml) was added to all wells. Plate was incubated on a shaker at RT for 1 h and results were recorded on IGEN/Bio […]8 analyser. Amyloid β1-40 peptide degradation by Neprilysin was calculated as a percentage of Amyloid β1-40 peptide left after incubation in the presence of Neprilysin compared to the amyloid β1-40 peptide concentration in the absence of Neprilysin.

The test system of series [3] is amyloid β peptide1-40 (Aβ40). Briefly: Degradation of Aβ1-40 in guinea pig plasma by neprilysin. It is filed as biochemical. The protocol: as §1

B1: Neprilysin: Aβ-degrading Zn-metallopeptidase; soluble extracellular domain (SEQ ID NO 1-4), commercial (R&D Systems) or produced in-house (protein, UniProt P08473 52-750, looked up)
extracellular domain: YDDGICKSSDCIKSAARLIQNMDATTEPCTDFFKYACGGWLKRNVIPETSSRYGNFDILRDELEVVLKDVLQEPKTEDIVAVQKAKALYRSCINESAIDSRGGEPLLKLLPDIYGWPVATENWEQKYGASWTAEKAIAQLNSKYGKKVLINLFVGTDDKNSVNHVIHIDQPRLGLPSRDYYECTGIYKEACTAYVDFMISVARLIRQEERLPIDENQLALEMNKVMELEKEIANATAKPEDRNDPMLLYNKMTLAQIQNNFSLEINGKPFSWLNFTNEIMSTVNISITNEEDVVVYAPEYLTKLKPILTKYSARDLQNLMSWRFIMDLVSSLSRTYKESRNAFRKALYGTTSETATWRRCANYVNGNMENAVGRLYVEAAFAGESKHVVEDLIAQIREVFIQTLDDLTWMDAETKKRAEEKALAIKERIGYPDDIVSNDNKLNNEYLELNYKEDEYFENIIQNLKFSQSKQLKKLREKVDKDEWISGAAVVNAFYSSGRNQIVFPAGILQPPFFSAQQSNSLNYGGIGMVIGHEITHGFDDNGRNFNKDGDLVDWWTQQSASNFKEQSQCMVYQYGNFSWDLAGGQHLNGINTLGENIADNGGLGQAYRAYQNYIKKNGEEKLLPGLDLNHKQLFFLNFAQVWCGTYRPEYAVNSIKTDVHSPGNFRIIGTLQNSAEFSEAFHCRKNSYMNPEKKCRVW
modifications: extracellular domain
Turning to B1, the “Activity of purified protein with versus without added zinc” value in series [1] is listed as “no difference in activity”. In addition, the “Sites at which amyloid β peptide is cleaved in vitro” value in the series on Ab1-42 was “five sites”. In series [2], the “Degradation of Aβ1-42 over time” value is recorded as “time-dependent manner”. Moreover, in the series with amyloid β peptide, the “Concentration of amyloid β peptide in the other compartment” value was “decreased”. In the series with amyloid β1-40 peptide, the “Amyloid β1-40 peptide degraded” value is reported as 88%. The “Degradation of Aβ1-40 versus dose” value in series [3] (0-20 μg/ml neprilysin, 210 minutes at 37° C.) is given as “dose dependent manner”. For the same molecule, the “Degradation of Aβ1-40 over time” value in series [3] (5 μg/ml neprilysin, 0-360 minutes at 37° C.) is “time-dependent manner”.
